These results are taken from PMC10104074.

For this assay, the target named is globupain zymogen (wild-type, signal-free, C-terminal 6xHis) (unclassified Archaeoglobus species (metagenome, Soria Moria hydrothermal vent field)). Nature of the assay: SEC + AUC.

Take “globupain zymogen (wild-type, signal-free, C-terminal 6xHis) (enzyme)”: the stoichiometry N worked out at 2.

One may read the stoichiometry N as a count of units in the complex or per binding partner.
